Experiment [1] concerns the target T1, recombinant human alpha-L-iduronidase (Aldurazyme) (human, UniProt P35475 27-653, limits assumed).
T1 construct: also called rhIDU; Recombinant human IDU
T1 sequence (looked up): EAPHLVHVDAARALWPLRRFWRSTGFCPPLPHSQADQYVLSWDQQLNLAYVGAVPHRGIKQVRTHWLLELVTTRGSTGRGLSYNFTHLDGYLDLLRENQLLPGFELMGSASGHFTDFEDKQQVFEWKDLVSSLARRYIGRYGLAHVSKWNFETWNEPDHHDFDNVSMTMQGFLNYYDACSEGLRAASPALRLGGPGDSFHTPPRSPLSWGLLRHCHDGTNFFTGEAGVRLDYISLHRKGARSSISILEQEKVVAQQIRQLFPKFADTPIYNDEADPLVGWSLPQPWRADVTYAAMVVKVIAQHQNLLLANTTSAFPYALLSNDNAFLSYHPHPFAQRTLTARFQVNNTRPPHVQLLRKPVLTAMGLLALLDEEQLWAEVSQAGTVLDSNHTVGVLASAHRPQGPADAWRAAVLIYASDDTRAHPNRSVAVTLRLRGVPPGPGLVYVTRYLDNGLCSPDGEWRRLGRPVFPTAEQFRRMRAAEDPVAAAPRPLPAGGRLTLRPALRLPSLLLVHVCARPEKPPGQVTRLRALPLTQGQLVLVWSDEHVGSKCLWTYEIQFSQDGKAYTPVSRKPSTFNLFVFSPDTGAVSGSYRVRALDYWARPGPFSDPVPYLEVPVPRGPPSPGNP
The experiment in a line: ligand blot, sLRP2 spotted on membrane, detection with antibodies.
Procedure: Membranes were then mounted in a Bio-Rad dot blot apparatus. The second ligand-binding domain of LRP1 (sLRP2, 1 μg/well) was applied to the membrane by vacuum filtration. The membrane was then cut into sections that were placed in separate wells of a 24-well plate. Membranes were blocked in TBS (20 mM Tris pH 7.4, 150 mM Sodium Chloride) with 5 mM Calcium Chloride and 3% non-fat dry milk for 30 minutes. Ligands were incubated with each membrane spot for 2 hours at room temperature. Individual blots were washed 2×5 minutes each with blocking buffer and then incubated with different antibodies in block buffer for one hour at room temperature to detect binding.

Experiment [2] has as its target mLRP/LRPTmMegT mini-receptor (MEGt) (UniProt Q07954 3293-4444). Description: cell-based or functional assay.

mLRP/LRPTmMegT mini-receptor (MEGt), sequence (Q07954 3293-4444): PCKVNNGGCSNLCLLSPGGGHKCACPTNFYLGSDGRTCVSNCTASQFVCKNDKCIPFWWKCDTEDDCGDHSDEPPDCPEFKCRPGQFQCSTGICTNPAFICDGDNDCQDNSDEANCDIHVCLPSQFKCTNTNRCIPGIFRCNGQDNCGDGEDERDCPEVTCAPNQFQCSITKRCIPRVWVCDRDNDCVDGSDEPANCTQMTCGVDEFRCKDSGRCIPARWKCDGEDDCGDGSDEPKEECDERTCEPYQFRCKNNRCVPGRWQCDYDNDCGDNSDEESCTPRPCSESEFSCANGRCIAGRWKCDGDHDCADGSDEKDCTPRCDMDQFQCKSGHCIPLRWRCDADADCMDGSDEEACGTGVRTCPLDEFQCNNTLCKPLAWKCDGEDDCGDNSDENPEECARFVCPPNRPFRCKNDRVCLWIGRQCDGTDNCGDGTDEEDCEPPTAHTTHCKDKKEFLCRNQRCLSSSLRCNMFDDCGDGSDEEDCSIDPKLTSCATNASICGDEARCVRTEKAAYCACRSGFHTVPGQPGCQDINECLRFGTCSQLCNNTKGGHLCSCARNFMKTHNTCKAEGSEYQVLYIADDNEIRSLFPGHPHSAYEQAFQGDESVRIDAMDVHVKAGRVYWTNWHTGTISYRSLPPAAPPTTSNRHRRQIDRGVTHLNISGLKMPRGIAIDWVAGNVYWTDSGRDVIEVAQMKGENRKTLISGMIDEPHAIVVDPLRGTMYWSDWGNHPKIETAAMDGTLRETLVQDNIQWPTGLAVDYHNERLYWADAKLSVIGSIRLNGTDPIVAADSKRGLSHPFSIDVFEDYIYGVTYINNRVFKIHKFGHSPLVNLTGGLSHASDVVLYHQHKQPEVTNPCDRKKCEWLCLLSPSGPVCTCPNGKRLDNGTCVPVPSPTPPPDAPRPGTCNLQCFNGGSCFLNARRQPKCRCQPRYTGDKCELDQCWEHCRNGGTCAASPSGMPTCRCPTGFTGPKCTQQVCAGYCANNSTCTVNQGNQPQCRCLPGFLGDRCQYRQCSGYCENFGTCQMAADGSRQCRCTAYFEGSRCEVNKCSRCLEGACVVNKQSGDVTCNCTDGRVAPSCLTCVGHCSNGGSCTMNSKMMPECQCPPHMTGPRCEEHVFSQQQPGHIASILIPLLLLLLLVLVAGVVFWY

B1: sLRP2, the entire second ligand-binding domain of human LRP1 (receptor, UniProt Q07954 806-1183, looked up)
chain: KCRVNNGGCSSLCLATPGSRQCACAEDQVLDADGVTCLANPSYVPPPQCQPGEFACANSRCIQERWKCDGDNDCLDNSDEAPALCHQHTCPSDRFKCENNRCIPNRWLCDGDNDCGNSEDESNATCSARTCPPNQFSCASGRCIPISWTCDLDDDCGDRSDESASCAYPTCFPLTQFTCNNGRCININWRCDNDNDCGDNSDEAGCSHSCSSTQFKCNSGRCIPEHWTCDGDNDCGDYSDETHANCTNQATRPPGGCHTDEFQCRLDGLCIPLRWRCDGDTDCMDSSDEKSCEGVTHVCDPSVKFGCKDSARCISKAWVCDGDNDCEDNSDEENCESLACRPPSHPCANNTSVCLPPDKLCDGNDDCGDGSDEGELCD
notes: Recombinant soluble fragment made as in Bu and Rennke 1996; also called immobilized LRP
As to B1, the binding result in experiment [1] is reported as “no binding”.

B2: receptor-associated protein (RAP) (ligand)
chain: YSREKNQPKPSPKRESGEEFRMEKLNQLWEKAQRLHLPPVRLAELHADLKIQERDELAWKKLKLDGLDEDGEKEARLIRNLNVILAKYGLDGKKDARQVTSNSLSGTQEDGLDDPRLEKLWHKAKTSGKFSGEELDKLWREFLHHKEKVHEYNVLLETLSRTEEIHENVISPSDLSDIKGSVLHSRHTELKEKLRSINQGLDRLRRVSHQGYSTEAEFEEPRVIDLWDLAQSANLTDKELEAFREELKHFEAKIEKHNHYQKQLEIAHEKLRHAESVGDGERVSRSREKHALLEGRTKELGYTVKKHLQDLSGRISRARH
Turning to B2, in experiment [2], the “ratio of apical-to-basolateral to basolateral-to-apical permeability coefficient of 125I-RAP, MEGt-transfected MDCK” value amounted to 460 times.

(Values after patent publication US20050042227A1 (published 2005).)
